Assay results published in patent US10597433B2, “Peptides and combination of peptides for use in immunotherapy against small cell lung cancer and other cancers” (Immatics Biotechnologies GmbH, priority 2015, dated 2020).
Each block holds one substance with its values, some of them ahead of it.

Assays:
[1] = biological target: HLA-A*02:01 (Homo sapiens, UniProt P04439, D140Y/D185E/D98H/E176V/E277Q/G131W/G231S/I119V/I121R/I166T/I218V/L300P/L318F/N151K/N90K/P208A/P217A/Q86G/Q94H/R138H/R169H/T345S); assay: MHC binding assay: UV-ligand exchange with ELISA detection of β2m of stabilized MHC complexes; conditions: binding to HLA-A*02:01
From the text: Candidate peptides for T cell based therapies according to the present invention were further tested for their MHC binding capacity (affinity). The individual peptide-MHC complexes were produced by UV-ligand exchange, where a UV-sensitive peptide is cleaved upon UV-irradiation, and exchanged with the peptide of interest as analyzed. Only peptide candidates that can effectively bind and stabilize the peptide-receptive MHC molecules prevent dissociation of the MHC complexes. To determine the yield of the exchange reaction, an ELISA was performed based on the detection of the light chain (β2m) of stabilized MHC complexes. The assay was performed as generally described in Rodenko et al. (Rodenko et al., 2006).
96 well MAXISorp plates (NUNC) were coated over night with 2 μg/ml streptavidin in PBS at room temperature, washed 4× and blocked for 1 h at 37° C. in 2% BSA containing blocking buffer. Refolded HLA-A*02:01/MLA-001 monomers served as standards, covering the range of 15-500 ng/ml. Peptide-MHC monomers of the UV-exchange reaction were diluted 100 fold in blocking buffer. Samples were incubated for 1 h at 37° C., washed four times, incubated with 2 μg/ml HRP conjugated anti-β2m for 1 h at 37° C., washed again and detected with TMB solution that is stopped with […]. Absorption was measured at 450 nm. Candidate peptides that show a high exchange yield (preferably higher than 50%, most preferred higher than 75%) are generally preferred for a generation and production of antibodies or fragments thereof, and/or T cell receptors or fragments thereof, as they show sufficient avidity to the MHC molecules and prevent dissociation of the MHC complexes.

[2] = tested on: CD8+ T cells; assay: In vitro T-cell priming assay with aAPCs loaded with peptide/MHC complexes and anti-CD28 antibody, pMHC multimer readout; assay type: cell-based, human; conditions: for Wells positive [%]: HLA-A*02 restricted peptides, CD8+ T cells of healthy donors, Table 10B; for wells (in vitro immunogenicity, positive wells): CD8+ T cells of healthy HLA-A*02 donors, Table 10A
From the text: In order to obtain information regarding the immunogenicity of the TUMAPs of the present invention, the inventors performed investigations using an in vitro T-cell priming assay based on repeated stimulations of CD8+ T cells with artificial antigen presenting cells (aAPCs) loaded with peptide/MHC complexes and anti-CD28 antibody.
In order to perform in vitro stimulations by artificial antigen presenting cells loaded with peptide-MHC complex (pMHC) and anti-CD28 antibody, the inventors first isolated CD8+ T cells from fresh HLA-A*02 leukapheresis products via positive selection using CD8 microbeads (Miltenyi Biotec, Bergisch-Gladbach, Germany) of healthy donors obtained from the University clinics Mannheim, Germany, after informed consent.
PBMCs and isolated CD8+ lymphocytes were incubated in T-cell medium (TCM) until use consisting of RPMI-Glutamax (Invitrogen, Karlsruhe, Germany) supplemented with 10% heat inactivated human AB serum (PAN-Biotech, Aidenbach, Germany), 100 U/ml Penicillin/100 μg/ml Streptomycin (Cambrex, Cologne, Germany), 1 mM sodium pyruvate (CC Pro, Oberdorla, Germany), 20 μg/ml Gentamycin (Cambrex). 2.5 ng/ml IL-7 (PromoCell, Heidelberg, Germany) and 10 U/ml IL-2 (Novartis Pharma, Nürnberg, Germany) were also added to the TCM at this step.
Generation of pMHC/anti-CD28 coated beads, T-cell stimulations and readout was performed in a highly defined in vitro system using four different pMHC molecules per stimulation condition and 8 different pMHC molecules per readout condition.
The purified co-stimulatory mouse IgG2a anti human CD28 Ab9.3 (Jung et al., 1987) was chemically biotinylated using Sulfo-N-hydroxysuccinimidobiotin as recommended by the manufacturer (Perbio, Bonn, Germany). Beads used were 5.6 μm diameter streptavidin coated polystyrene particles (Bangs Laboratories, Ill., USA).
800.000 beads/200 μl were coated in 96-well plates in the presence of 4×12.5 ng different biotin-pMHC, washed and 600 ng biotin anti-CD28 were added subsequently in a volume of 200 μl. Stimulations were initiated in 96-well plates by co-incubating […] CD8+ T cells with 2×10^5 washed coated beads in 200 μl TCM supplemented with 5 ng/ml IL-12 (PromoCell) for 3 days at 37° C. Half of the medium was then exchanged by fresh TCM supplemented with 80 Uml IL-2 and incubating was continued for 4 days at 37° C. This stimulation cycle was performed for a total of three times. For the pMHC multimer readout using 8 different pMHC molecules per condition, a two-dimensional combinatorial coding approach was used as previously described (Andersen et al., 2012) with minor modifications encompassing coupling to 5 different fluorochromes. Finally, multimeric analyses were performed by staining the cells with Live/dead near IR dye (Invitrogen, Karlsruhe, Germany), CD8-FITC antibody clone SK1 (BD, Heidelberg, Germany) and fluorescent pMHC multimers. For analysis, a BD LSRII SORP cytometer equipped with appropriate lasers and filters was used. Peptide specific cells were calculated as percentage of total CD8+ cells. Evaluation of multimeric analysis was done using the FlowJo software (Tree Star, Oreg., USA). In vitro priming of specific multimer+ CD8+ lymphocytes was detected by comparing to negative control stimulations.

Peptide exchange (MHC class I binding score, peptide exchange yield) [1]: +++ (≥50 = +++)
Substance: 2 (VMFNFPDQATV; listed as Homo sapiens) [compound 2]
Wells positive [%] [2]: + (<20% = +)

Peptide exchange (MHC class I binding score, peptide exchange yield) [1]: +++ (≥50 = +++)
Substance: 39 (GLDPTQFRV; listed as Homo sapiens) [compound 39]
Wells positive [%] [2]: ++++ (≥70 = ++++)

Peptide exchange (MHC class I binding score, peptide exchange yield) [1]: ++++ (≥75% = ++++)
Substance: 78 (RIIDPEDLKALL; listed as Homo sapiens) [compound 78]

Peptide exchange (MHC class I binding score, peptide exchange yield) [1]: +++ (≥50 = +++)
Substance: 62 (VMLPIGAVVMV; listed as Homo sapiens) [compound 62]

Peptide exchange (MHC class I binding score, peptide exchange yield) [1]: +++ (≥50 = +++)
Substance: 43 (YLWSEVFSM; listed as Homo sapiens) [compound 43]

Peptide exchange (MHC class I binding score, peptide exchange yield) [1]: +++ (≥50 = +++)
Substance: 74 (FLDSLSPSV; listed as Homo sapiens) [compound 74]

Peptide exchange (MHC class I binding score, peptide exchange yield) [1]: +++ (≥50 = +++)
Substance: 65 (VMYDLITEL; listed as Homo sapiens) [compound 65]

Peptide exchange (MHC class I binding score, peptide exchange yield) [1]: ++++ (≥75% = ++++)
Substance: 5 (SLQSLIISV; listed as Homo sapiens) [compound 5]

Peptide exchange (MHC class I binding score, peptide exchange yield) [1]: +++ (≥50 = +++)
Substance: 34 (LVFEGIMEV; listed as Homo sapiens) [compound 34]

Peptide exchange (MHC class I binding score, peptide exchange yield) [1]: ++++ (≥75% = ++++)
Substance: 109 (SLFERLVVL; listed as Homo sapiens) [compound 109]

Peptide exchange (MHC class I binding score, peptide exchange yield) [1]: +++ (≥50 = +++)
Substance: 18 (ALGEISVSV; listed as Homo sapiens) [compound 18]

Peptide exchange (MHC class I binding score, peptide exchange yield) [1]: +++ (≥50 = +++)
Substance: 36 (RMDGAVTSV; listed as Homo sapiens) [compound 36]

Peptide exchange (MHC class I binding score, peptide exchange yield) [1]: +++ (≥50 = +++)
Substance: 30 (KMLGLTVSL; listed as Homo sapiens) [compound 30]

Peptide exchange (MHC class I binding score, peptide exchange yield) [1]: +++ (≥50 = +++)
Substance: 90 (TLVDNISTMAL; listed as Homo sapiens) [compound 90]

Peptide exchange (MHC class I binding score, peptide exchange yield) [1]: ++++ (≥75% = ++++)
Substance: 6 (SIMDYVVFV; listed as Homo sapiens) [compound 6]
Wells positive [%] [2]: + (<20% = +)

The remaining lines, values behind:

Substance: 4 (GLLDPGMLVNI; listed as Homo sapiens) [compound 4]
Peptide exchange (MHC class I binding score, peptide exchange yield) [1]: +++ (≥50 = +++)
Wells positive [%] [2]: ++ (20%-49% = ++)

Substance: 80 (ILMDPSPEYA; listed as Homo sapiens) [compound 80]
Peptide exchange (MHC class I binding score, peptide exchange yield) [1]: +++ (≥50 = +++)
Wells positive [%] [2]: +++ (50%-69% = +++)

Substance: 132 (NLLAEIHGV; listed as Homo sapiens) [compound 132]
wells (in vitro immunogenicity, positive wells) [2]: + (<20% = +)

Substance: 130 (SLYDNQITTV; listed as Homo sapiens) [compound 130]
wells (in vitro immunogenicity, positive wells) [2]: ++ (20%-49% = ++)

Substance: 129 (RVADYIVKV; listed as Homo sapiens) [compound 129]
wells (in vitro immunogenicity, positive wells) [2]: + (<20% = +)

Substance: 128 (SLAPAGVIRV; listed as Homo sapiens) [compound 128]
wells (in vitro immunogenicity, positive wells) [2]: + (<20% = +)

Substance: 11 (KLFAIPILL; listed as Homo sapiens) [compound 11]
Peptide exchange (MHC class I binding score, peptide exchange yield) [1]: +++ (≥50 = +++)
Wells positive [%] [2]: ++++ (≥70 = ++++)

Substance: 79 (RLLEPAQVQQL; listed as Homo sapiens) [compound 79]
Peptide exchange (MHC class I binding score, peptide exchange yield) [1]: +++ (≥50 = +++)

Substance: 96 (NLLKLIAEV; listed as Homo sapiens) [compound 96]
Peptide exchange (MHC class I binding score, peptide exchange yield) [1]: ++++ (≥75% = ++++)

Substance: 56 (SLFSQMGSQYEL; listed as Homo sapiens) [compound 56]
Peptide exchange (MHC class I binding score, peptide exchange yield) [1]: +++ (≥50 = +++)

Substance: 51 (ILDEAGVKYFL; listed as Homo sapiens) [compound 51]
Peptide exchange (MHC class I binding score, peptide exchange yield) [1]: +++ (≥50 = +++)

Substance: 35 (FMGDVFINV; listed as Homo sapiens) [compound 35]
Peptide exchange (MHC class I binding score, peptide exchange yield) [1]: ++++ (≥75% = ++++)

Substance: 104 (TLIQFTVKL; listed as Homo sapiens) [compound 104]
Peptide exchange (MHC class I binding score, peptide exchange yield) [1]: +++ (≥50 = +++)

Substance: 110 (GLTETGLYRI; listed as Homo sapiens) [compound 110]
Peptide exchange (MHC class I binding score, peptide exchange yield) [1]: +++ (≥50 = +++)
Wells positive [%] [2]: +++ (50%-69% = +++)

Substance: 98 (ALVDHLNVGV; listed as Homo sapiens) [compound 98]
Peptide exchange (MHC class I binding score, peptide exchange yield) [1]: +++ (≥50 = +++)

Substance: 100 (VADPETRTV; listed as Homo sapiens) [compound 100]
Peptide exchange (MHC class I binding score, peptide exchange yield) [1]: + (≥10% = +)

Substance: 117 (FLLDSAPLNV; listed as Homo sapiens) [compound 117]
Peptide exchange (MHC class I binding score, peptide exchange yield) [1]: ++++ (≥75% = ++++)

Substance: 82 (ALSSVIKEL; listed as Homo sapiens) [compound 82]
Peptide exchange (MHC class I binding score, peptide exchange yield) [1]: +++ (≥50 = +++)
Wells positive [%] [2]: + (<20% = +)
